In US20070105152:

Key:
[1] = molecular target: T1, His-Trp-AcLys-Thr-His (SIRT1 library hit, on bead)
T1 chain: HWKTHXXRM

[2] = molecular target: T2, AcSTGG(AcK)AP
T2 chain: STGGKAP

[3] = molecular target: T3, Gly-Tyr-AcLys-Pro-Thr (SIRT1 library hit, on bead)
T3 chain: GYKPTXXRM

[4] = molecular target: T4, Me2Arg/Pro-Me2Arg/Pro-AcLys-Ser-Ile (SIRT1 library hit, on bead)
T4 chain: RPKSIXXRM

[5] = molecular target: T5, EL(AcK)AS
T5 chain: ELKAS

[6] = molecular target: T6, QNle(AcK)GF
T6 chain: QLKGF

[7] = molecular target: T7, Pro/Trp-Pro/Trp-AcLys-Ile-Thr (SIRT1 library hit, on bead)
T7 chain: WPKITXXRM

[8] = molecular target: T8, QP(AcK)QI
T8 chain: QPKQI

[9] = molecular target: T9, AcGG(AcK)AP
T9 chain: GGKAP

[10] = molecular target: T10, Me2Arg-Pro-AcLys-Gln-Phe (SIRT1 library hit, on bead)
T10 chain: RPKQFXXRM

[11] = molecular target: T11, Pro-Ile-AcLys-Glu-Gln (SIRT1 library hit, on bead)
T11 chain: PIKEQXXRM

[12] = molecular target: T12, AcGG(AcK)APRKQ
T12 chain: GGKAPRKQ

[13] = molecular target: T13, Gln-Pro-AcLys-Gln-Ile (SIRT1 library hit, on bead)
T13 chain: QPKQIXXRM

[14] = molecular target: T14, WH(AcK)QQ
T14 chain: WHKQQ

[15] = molecular target: T15, Leu-Asn-AcLys-Asp-Gln (SIRT1 library hit, on bead)
T15 chain: LNKDQXXRM

[16] = molecular target: T16, Asp-Val-AcLys-Nle-His (SIRT1 library hit, on bead)
T16 chain: DVKMHXXRM

[17] = molecular target: T17, HK(AcK)LM
T17 chain: HKKLM

[18] = molecular target: T18, Ala-Val-AcLys-Phe-Nle (SIRT1 library hit, on bead)
T18 chain: AVKFMXXRM

[19] = molecular target: T19, Ile-Tyr-AcLys-Asn-Asp (SIRT1 library hit, on bead)
T19 chain: IYKNDXXRM

[20] = molecular target: T20, Me2Arg-Phe-AcLys-Pro-Glu (SIRT1 library hit, on bead)
T20 chain: RFKPEXXRM

[21] = molecular target: T21, Me2RP(AcK)SI
T21 chain: RPKSI

[22] = molecular target: T22, Thr-Pro-AcLys-Asn-Ala (SIRT1 library hit, on bead)
T22 chain: TPKNAXXRM

[23] = molecular target: T23, Trp-Gly-AcLys-Ser-Pro (SIRT1 library hit, on bead)
T23 chain: WGKSPXXRM

[24] = molecular target: T24, AcTGG(AcK)APR
T24 chain: TGGKAPR

[25] = molecular target: T25, AcGG(AcK)APRK
T25 chain: GGKAPRK

[26] = molecular target: T26, AcTGG(AcK)APRK
T26 chain: TGGKAPRK

[27] = molecular target: T27, Thr-Glu-AcLys-Gln-Glu (SIRT1 library hit, on bead)
T27 chain: TEKQEXXRM

[28] = molecular target: T28, Val-Gln-AcLys-Ile-Ile (SIRT1 library hit, on bead) (not fully specified)
T28 chain: VQKIIXXRM

[29] = molecular target: T29, AcSTGG(AcK)APR
T29 chain: STGGKAPR

[30] = molecular target: T30, Me2RP(AcK)QF
T30 chain: RPKQF

[31] = molecular target: T31, Me2Arg-Ala-AcLys-Nle-Asp (SIRT1 library hit, on bead)
T31 chain: RAKMDXXRM

[32] = molecular target: T32, AY(AcK)EV
T32 chain: AYKEV

[33] = molecular target: T33, Me2Arg/Trp-Me2Arg/Trp-AcLys-Ile-Thr (SIRT1 library hit, on bead)
T33 chain: RWKITXXRM

[34] = molecular target: T34, NH(AcK)II
T34 chain: NHKII

[35] = molecular target: T35, Trp-His-AcLys-Phe-Gln (SIRT1 library hit, on bead) (not fully specified)
T35 chain: WHKFQXXRM

[36] = molecular target: T36, Asn-His-AcLys-Leu-Leu (SIRT1 library hit, on bead)
T36 chain: NHKLLXXRM

[37] = molecular target: T37, Ser-Asp-AcLys-Tyr-His (SIRT1 library hit, on bead)
T37 chain: SDKYHXXRM

[38] = molecular target: T38, Asn-His-AcLys-Ile-Ile (SIRT1 library hit, on bead)
T38 chain: NHKIIXXRM

[39] = molecular target: T39, AcGG(AcK)APR
T39 chain: GGKAPR

[40] = molecular target: T40, VQ(AcK)II
T40 chain: VQKII

[41] = molecular target: T41, Phe-Glu-AcLys-Tyr-Me2Arg (SIRT1 library hit, on bead)
T41 chain: FEKYRXXRM

[42] = molecular target: T42, Pro-Gly-AcLys-Leu-Tyr (SIRT1 library hit, on bead)
T42 chain: PGKLYXXRM

[43] = molecular target: T43, Nle-Nle-AcLys-Gln-Gln (SIRT1 library hit, on bead)
T43 chain: MMKQQXXRM

[44] = molecular target: T44, LNle(AcK)VG
T44 chain: LLKVG

[45] = molecular target: T45, AcKSTGG(AcK)AP
T45 chain: KSTGGKAP

[46] = molecular target: T46, Trp-His-AcLys-Phe-Glu (SIRT1 library hit, on bead) (not fully specified)
T46 chain: WHKFEXXRM

[47] = molecular target: T47, Ser-Tyr-AcLys-Gln-Trp (SIRT1 library hit, on bead)
T47 chain: SYKQWXXRM

[48] = molecular target: T48, Trp-Pro-AcLys-Trp-Gln (SIRT1 library hit, on bead) (not fully specified)
T48 chain: WPKWQXXRM

[49] = molecular target: T49, WH(AcK)FQ
T49 chain: WHKFQ

[50] = molecular target: T50, Gly-Thr-AcLys-Thr-Gly (SIRT1 library hit, on bead)
T50 chain: GTKTGXXRM

[51] = molecular target: T51, His-Me2Arg-AcLys-Nle-Pro (SIRT1 library hit, on bead)
T51 chain: HRKMPXXRM

[52] = molecular target: T52, WP(AcK)QQ
T52 chain: WPKQQ

[53] = molecular target: T53, AcTGG(AcK)AP
T53 chain: TGGKAP

[54] = molecular target: T54, Trp-Trp-AcLys-His-Gly (SIRT1 library hit, on bead) (not fully specified)
T54 chain: WWKHGXXRM

[55] = molecular target: T55, Asp-Ser-AcLys-Gly-Ala (SIRT1 library hit, on bead)
T55 chain: DSKGAXXRM

[56] = molecular target: T56, Ile-Phe-AcLys-Thr-Phe (SIRT1 library hit, on bead)
T56 chain: IFKTFXXRM

B1: human NAD+-dependent deacetylase SIRT1 (protein)
chain: MADEAALALQPGGSPSAAGADREAASSPAGEPLRKRPRRDGPGLERSPGEPGGAAPEREVPAAARGCPGAAAAALWREAEAEAAAAGGEQEAQATAAAGEGDNGPGLQGPSREPPLADNLYDEDDDDEGEEEEEAAAAAIGYRDNLLFGDEIITNGFHSCESDEEDRASHASSSDWTPRPRIGPYTFVQQHLMIGTDPRTILKDLLPETIPPPELDDMTLWQIVINILSEPPKRKKRKDINTIEDAVKLLQECKKIIVLTGAGVSVSCGIPDFRSRDGIYARLAVDFPDLPDPQAMFDIEYFRKDPRPFFKFAKEIYPGQFQPSLCHKFIALSDKEGKLLRNYTQNIDTLEQVAGIQRIIQCHGSFATASCLICKYKVDCEAVRGDIFNQVVPRCPRCPADEPLAIMKPEIVFFGENLPEQFHRAMKYDKDEVDLLIVIGSSLKVRPVALIPSSIPHEVPQILINREPLPHLHFDVELLGDCDVIINELCHRLGGEYAKLCCNPVKLSEITEKPPRTQKELAYLSELPPTPLHVSEDSSSPERTSPPDSSVIVTLLDQAAKSNDDLDVSESKGCMEEKPQEVQTSRNVESIAEQMENPDLKNVGSSTGEKNERTSVAGTVRKCWPNRVAKEQISRRLDGNQYLFLPPNRYIFHGAEVYSDSEDDVLSSSSCGSNSDSGTCQSPSLEEPMEDESEIEEFYNGLEDEPDVPERAGGAGFGTDGDDQEAINEAISVKQEVTDMNYPSNKS
In the case of B1, the “on-bead deacetylation, biotin and streptavidin quantum dot fluorescence, among the 45 brightest beads” value (“on-bead deacetylation” below) [1] is reported as “hits from the SIRT1 combinatorial library screen”, the Relative kcat/Km (relative to AcTGG(AcK)APRK = 1) [2] is reported as 1.61 and the “on-bead deacetylation” value [3] is reported as “hits from the SIRT1 combinatorial library screen”. For the same protein, the “on-bead deacetylation” value [4] was “hits from the SIRT1 combinatorial library screen”, the kcat/Km [5] was 0.00139 M⁻¹ s⁻¹ and the kcat/Km [6] was 0.00237 M⁻¹ s⁻¹. The “on-bead deacetylation” value [7] was “hits from the SIRT1 combinatorial library screen”, the “fold preference in catalytic activity over WP(AcK)QQ” value [8] was “QP(AcK)QI is favored over WP(AcK)QQ by 18-fold” and the kcat/Km [8] was 0.0272 M⁻¹ s⁻¹. The Relative kcat/Km (relative to AcTGG(AcK)APRK = 1) [9] was 1.72, the “on-bead deacetylation” value [10] was “hits from the SIRT1 combinatorial library screen” and the “on-bead deacetylation” value [11] was “hits from the SIRT1 combinatorial library screen”. For the same protein, the Relative kcat/Km (relative to AcTGG(AcK)APRK = 1) [12] was 0.8, the “on-bead deacetylation” value [13] was “hits from the SIRT1 combinatorial library screen” and the fold difference in catalytic activity against WP(AcK)QQ [14] was 7 fold. For the same protein, the kcat/Km [14] was 0.00723 M⁻¹ s⁻¹, the “on-bead deacetylation” value [15] was “hits from the SIRT1 combinatorial library screen” and the “on-bead deacetylation” value [16] was “hits from the SIRT1 combinatorial library screen”. The kcat/Km [17] was 3110 M⁻¹ s⁻¹, the “on-bead deacetylation” value [18] was “hits from the SIRT1 combinatorial library screen” and the “on-bead deacetylation” value [19] was “hits from the SIRT1 combinatorial library screen”. For the same protein, the “on-bead deacetylation” value [20] was “hits from the SIRT1 combinatorial library screen”, the kcat/Km [21] was 8360 M⁻¹ s⁻¹ and the “on-bead deacetylation” value [22] was “hits from the SIRT1 combinatorial library screen”. The “on-bead deacetylation” value [23] was “hits from the SIRT1 combinatorial library screen”, the Relative kcat/Km (relative to AcTGG(AcK)APRK = 1) [24] was 0.64 and the Relative kcat/Km (relative to AcTGG(AcK)APRK = 1) [25] was 1.01. The Relative kcat/Km (relative to AcTGG(AcK)APRK = 1) [26] was 1, the “on-bead deacetylation” value [27] was “hits from the SIRT1 combinatorial library screen” and the “on-bead deacetylation” value [28] was “hits from the SIRT1 combinatorial library screen”. The Relative kcat/Km (relative to AcTGG(AcK)APRK = 1) [29] was 0.67, the kcat/Km [30] was 0.0147 M⁻¹ s⁻¹ and the “on-bead deacetylation” value [31] was “hits from the SIRT1 combinatorial library screen”. The kcat/Km [32] was 5320 M⁻¹ s⁻¹, the “on-bead deacetylation” value [33] was “hits from the SIRT1 combinatorial library screen” and the kcat/Km [34] was 3630 M⁻¹ s⁻¹. The “on-bead deacetylation” value [35] was “hits from the SIRT1 combinatorial library screen”, the “on-bead deacetylation” value [36] was “hits from the SIRT1 combinatorial library screen” and the “on-bead deacetylation” value [37] was “hits from the SIRT1 combinatorial library screen”. The “on-bead deacetylation” value [38] was “hits from the SIRT1 combinatorial library screen”, the Relative kcat/Km (relative to AcTGG(AcK)APRK = 1) [39] was 0.68 and the kcat/Km [40] was ≥ 2470 M⁻¹ s⁻¹. The “on-bead deacetylation” value [41] was “hits from the SIRT1 combinatorial library screen”, the “on-bead deacetylation” value [42] was “hits from the SIRT1 combinatorial library screen” and the “on-bead deacetylation” value [43] was “hits from the SIRT1 combinatorial library screen”. For the same protein, the kcat/Km [44] was 0.00161 M⁻¹ s⁻¹, the Relative kcat/Km (relative to AcTGG(AcK)APRK = 1) [45] was 0.71 and the “on-bead deacetylation” value [46] was “hits from the SIRT1 combinatorial library screen”. The “on-bead deacetylation” value [47] was “hits from the SIRT1 combinatorial library screen”, the “on-bead deacetylation” value [48] was “hits from the SIRT1 combinatorial library screen” and the kcat/Km [49] was 3290 M⁻¹ s⁻¹. For the same protein, the “on-bead deacetylation” value [50] was “hits from the SIRT1 combinatorial library screen”, the “on-bead deacetylation” value [51] was “hits from the SIRT1 combinatorial library screen” and the kcat/Km [52] was 0.00154 M⁻¹ s⁻¹. For the same protein, the Relative kcat/Km (relative to AcTGG(AcK)APRK = 1) [53] was 0.54, the “on-bead deacetylation” value [54] was “hits from the SIRT1 combinatorial library screen” and the “on-bead deacetylation” value [55] was “hits from the SIRT1 combinatorial library screen”. For the same protein, the “on-bead deacetylation” value [56] was “hits from the SIRT1 combinatorial library screen”.
